Measured values from the nanobody polyreactivity screen of Harvey et al. (2022).

Assay: yeast display, Sf9 membrane polyspecificity reagent, FACS + sequencing; frameworks hold sequencing errors
Outline: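 Galactose induction of a Saccharomyces cerevisiae BJ5465 synthetic nanobody display library ran 36–48 hours. The cells were then stained for 1 hour at 4 °C with 10% biotinylated, detergent-solubilized Sf9 membrane reagent, pulled down on streptavidin microbeads and FACS-sorted into low and high (top ~1%) gates on expression and reagent-binding fluorescence. Labels for polyreactivity follow the gate of origin.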

Row | Sequence | polyreactivity (PSR sort gate)
1 | QVQLVESGGGLVQAGGSLRLSCAASGRTFNYYAMGSYRQAPGKERELVAAISWSGTPTYYADSVKGRFTISRDNAKNTVYLQMNSLKPEDTAVYYCAAHSGSTYKYWGQGTQVTVSS | low polyreactivity
2 | QVQLQESVGSLVQAGGSLRLSCAASGSISILQYMGWYRQAHGKELELVAGINWGATTYYADSVKGRLTTSRDYAKKTVYLQMNSLKPEDTAVYYCAVPTFYSYPVLYWGQGTQVTVSS | low polyreactivity
3 | QVQLVESAGGLVQAGGSLRLSCAASGSTIYGCVMGWYRHAPGKERELVAGITRGGSTNYADSVKGRFTISRDNAKNTVYLQMNSLKPEDTAVYYCATRYFSRYYYWGQGTQVTVSS | high polyreactivity
4 | QVQLVESGGGLVQAGGSLRLSCAASGFTSAPYAMGWYRQAPGKERELVAAITRTGGSTYYADSVKGRFTISRDNAKNTVYLQMNSLKPEDTAVYYCAVRLSGYQYHFRYGYWGQGTQVTVSS | high polyreactivity
5 | QVQLVESGGGLVQAGGSLRLSCAASGFTFGYYAMGWYRQAPGKERELVAAITYDGDITYYADSVKGRFTISRDNAKNTVYLQMNSLKPEDTAVYYCNRDVLTFNYDYWGQGTQVTVSS | low polyreactivity
6 | QVQLVESGGGLVQAGGSLRLSCAASGRISNKYAMGSYRQAPGKERELVAAISYSGGTTYYADSVKGRFTISRDNAKNTVYLQMNSLKPEDTAVYYCARVWSKGYGYYWGYYWGQGSQVTVSS | low polyreactivity
7 | QVQLQESGGGLVQARGSLRLSCAASGSISRYYDMGWYRQAPCKESEFVAGISGGAITYYADSVKGRFTISRDNAKNTVYLQMNSLKPEDTAVYYCAADTGVYKYHSYWGQVTQVTVSS | low polyreactivity
8 | QVQLVESGGGLVQAGGSLRLSCAASGSTFDGYAMGWYRQAPGKERELVAAINWGGGSTRYADSVKGRFTISRDNAKNTVYLQMNSVKPEDTAVYYCAARRFAYYFQYLVGGYWGQGTQVTVSS | high polyreactivity
9 | QVQLVESGGGLVQAGGSLRLSCAASGITFVWYDMGWYRQAPGKEREFVAVISKRGGSTYYADSVKGRFTISRDNAKNTVYLQMNSLKPEDTAVYYCAASYNLYRRYYYWGQGTQVTVSS | high polyreactivity
10 | QVQLVESGRGLVQAGGSLRLSCAASGRTLRIYAMGWYRQAPGKERELVAAITSSGRTNYADSVKGRFTISRDNAKNTVYLQMNSLKPEDTAVYYCAAVTPAVNYFRAASGYYYWGQGTQVTVSS | low polyreactivity
11 | QVQLVESGGGLVQAGGSLRLSCAASGSTIFENVMGWYREAPRKEREFVAAINTSGRSTYYADSVKGRFTISRDNAKNTVFLQMNSLKPEDTAVDYCARDSYWEMDYWGQGTQVTVSS | low polyreactivity
12 | QVQLVESGGGLVQAGGSLRLSCAASGGIFYGYAMGWYRQAPGKERELVAAISDSGGSTYYADSVKGRFTNSRDNAKYTGYVQMNSLKPEVTAVYYCATDAPVGGYVSEGDYWGQGTQVTVSS | low polyreactivity
13 | QVQLVESGGGLVQAGGSLRLSCAASGFTFSKYVKGLYRQAPGKERELVAAISKRGGSTYYADSVKGRFTISRDYAKNTVYLQMNSLKPEDTAVYYCAARYYLEQILEKDYWVQGTQVTVSS | high polyreactivity
14 | QVQLVESGGGLVQAGGSLRLSCAASGSTYRNAMGWYRQAPGKERELVAAITKSDSSTYYADSVKGRFTISRDNAKNTVYLQMYSLKPEDTAVYYCNVDRAWPPWPYDYWGQGTQVTVSS | low polyreactivity
15 | QVQLVESGGGLYQAGGSLRLSCAASGLIFTTNAMGWYRQAPGKEREFVAAISPSGGSTYYADSVKGRFTISRDNAKNTVYLQMNSLKPEDTAVYYCAARYSPVWHKYYYWGQGTQVTVSS | high polyreactivity
16 | QVQLVESGGGLVQAGGSLRLSCAASGSTFVIYAMGWYRQAPGKERELVAAISGRTGSTYYADSVKGRFTISRDNAKNTVYLQMNSLKPEDTAVYYCAAYKRSGLKYGHWGQGTQVTVSS | high polyreactivity
17 | QVQLVESGGGVVQAGGSLRLSCAASGSTFARKAMGWYRPAPGKERELVAAITYSGGRTYYADSVKGRVTISRDNAKNTVYLQMNRLKPVDTAVYYCAVKSFSGHGDYWGQGTQVTLSS | low polyreactivity
18 | QVQLQESGGDLEQAGGSLRLSCTASGTISDVRVMGWSRQAPGKERELVATISYVTITYYADSVKGRFTISRDSEKHRVSADDEPETGRYRGVLFRYYWGLGTQVTVSS | low polyreactivity
19 | QVQLVESGGGLVQAGGSLRLSCAASGSIFRGYSMGWYRQAPGKERELVAAINTSGGRTYYADSVKGRFTISRDNAKNTVYLQMNSLKPEDTAVFYCATEYYQAKREDYWGQGTQVTVSS | high polyreactivity
20 | RVQLVESGGGLVQAGGSHRLSCAASGRIFKNYAIGWYRQAPGKQRELVASITIGSTTYAESEKGRFTISRDNAKNTVYLKMNSLKREDTAVYYCAARRPRGFQGPNPWGYYYWGQGTQVTVSS | high polyreactivity
21 | QVQLVDSGGGLVQAGGSLRLSCAASGFIFPSYVMGWYRQAPGKERELVATISRTGGSTYYADSVKGRYTISRDNAKNTVYLQMNSLKPEYTAVYFCAAYRYSYLQLMDYWGQGTQVTVSS | high polyreactivity
22 | QVQLVESGGGLVQAGGSLRLSCAASGRIFEHNTMGWYRQAPGKERELVAAINWRGGSTYYADSVKGRFTISRYNAKNTVYLQMNSLKPEDTAVYYCNKYWWSYSYASGYNYWGQGTQVTVSS | high polyreactivity

Row | Sequence | polyreactivity (PSR sort gate)
23 | QVQLVESGGGLVQAGGSLRLSCAASGSTFTGYAMGWYRPAPGKESELVAAISISGGRTFYADSVKGRFTISRDNAKNTVYLQMNSLKPEDTSVYYCAVYRRGGVEAFLYWGQGTQVTVSS | high polyreactivity
24 | QVQLVESGGCLVQAGGSLRLSSAASGSTFYYYVMGLYRQAPGKERELVAAINSGGSTYYADSVQGRFTISRDNAKNTVYLQMNSLKPEDTAVYYCAKSCSYWYQYYYWGQGSQVTVSS | low polyreactivity
25 | QVQLVESGGGLVQAGRSLRLSCAASGRTFARYAMGGYRQAPGKERELVAAINSGGSTNYADSVKGRFTISRDNAKNTDYLQMNSLKPEDTAVYYCAADSYWKWYIAYPYYWGQGTQVTVSS | high polyreactivity
26 | QVQLVESGGGLVQAGGSLRLICAASGRILYYNVMVWYRQAPGKEREMVASITSVVSTNYADSVKGRFTISRDNAKNTVYLQMNSLKPEDTAVYYCAARYFSGSYSDQIWGMDYWGQGTQLTVSS | high polyreactivity
27 | QVQLVESGGGLVQAGGSLRLSCAASGRTSWPYAMGWYRQAPGKERELVAGISRNGGRTYYADSVKGRFTISRDNAKNTVYLQMNSLKPEDTAVYYCNAYPPSRHDYWGQGTQVTVSS | high polyreactivity
28 | QVKLVESGGGLVQAGGSLRLSCAASGRTFINYAMGWYRQAPGKERELVAAITTGGRTNYADSVKGRFTISRDNSKNTVYLQMNSLKPEDTEVYYCAADRYDWGRNTLNYWGQGTQVTVSS | low polyreactivity
29 | QVQLVESGGGLVQAGGSLRLSCAASGLIFSKNVMGWYRQAPGKERELVAAISQRGGSTYYADSVKGRFTISRDNAKNTVYLQMNSLKPEDTAVYYCAARSRRRDDYWGQGTQVTVSS | high polyreactivity
30 | QVQLVESGGGLVQAGGSLRLSCAASGRTFNPYAMGWYRQAPGKERELVAVISYIGGSTYADSVKGRFTISRDNEKNTVYLQMNSLKPEDTAVYYCNRATFGQWGCDYWGQGTQVTVSS | high polyreactivity
31 | QVQLVESGGGLVQAGGSLRLSCAASGITFSTYAMGWYRQAPGKERELVAAITKSGGSTYYADSVKGRFTISRDNAKNTVYLQMNSLKPEDTAVYYCAAKGWIWNPYNYWGQGTQVTVSS | low polyreactivity
32 | QVQLVESGGGLVQAGGSLRLSCAASGFTFSWYAMGWYRQAPGKEMELVAAIDDGGSTYYADSVKGRFTISRDNAKNTVYLQMNSLKPEDTAVYYCNARGYGTLNVRRERMDYWGQGTQVTVSS | high polyreactivity
33 | QVQLVESGGGLVQAGGSLRLSCAASGSILKNNAMGWYRLAPGKERELVAAITYSSGSTYYADSVKGRFTISRDNAKNTVYLQMNSLKPEDTAVYYCAAVYRYRYSFSGGYYWGQGTQVTVSS | low polyreactivity
34 | QVQLVESGGGLVQAGGSLRLSCAASGFILTSYAMGWYRKAPGKERELVAAISSRGGRTYYADSVKGRFTISRDNEKNTVYLQMNSLKPEDTAVYYCNAGVYVVGDFDYWGLGTQVTVSS | high polyreactivity
35 | QVKLGESGGGLVQAGGSLRLSCAASGSILEFNAKGWYRQAPGKERELVAGITRDGGTTYADSVKGRFTISRDNAKNNVYFQMNSLKPEDNAVYYCAGTYYFSRWDLYGYWGHGTQVTVSS | low polyreactivity
36 | QVQLVESGGGLVQAGGSLRLSCAASGNTLDAYTMGWYRQAPGKERELVAAISRGGTRTYYADSVKGRFTISRDNAKNTVYLQMNSLKPEDTAVYYCNKVRDYSYDSWGQCTQVTVSS | high polyreactivity
37 | QVQLVESGGGLVQAGGSLRLRCAASGRTFKVYAMGWYRQAPGKERELVAAISYSGAGTRYADSVKGRFTISRDNAKNTVYLQMNSLKPEDTAVYYCNTDAWARVKRYEYWGQGTQVTVSS | low polyreactivity
38 | QVQLVESGGGLVQAGGSLRLSCAASGSIFVGYAMGWYRQAPGKVRELVAAISRRGGSTYYADSVKGRFTISRDNAKNTLYLQMNSLKPEDTAVYYCAARQSTSATSGYYSWGQGTQVTVSS | high polyreactivity
39 | QVHLVESGGGLVQAGGSLRLSCAASGRIIGKYAMGWYRQPPGKERELVAAITWSGGNTYYADSVKGRFTISRDNAKNTVYLQMNSLKPEDTAVYYCAASVPGKSHKDGYWGQGSQVTVSS | high polyreactivity
40 | QFQLVESGGGLVQAGGSLRLSCAASGRTFRSNTMGWYRQAPGKEREFVAVITYSAGSTYYADSVKGRFTISRDNAKNTVYLQMNSLKPEDTAVYYCAARVSWWPYDWYGYWGQGTQVTVSS | high polyreactivity
41 | QVQLVESGGGLVQAGGSLRLSCAASGLTFDPYAMGWYRQAPGKEREFVATITTSGDSTYYADSVKGRFTISRDNAKNTVYLQMNSLKPEDTAVYYCNTQSRTLGWPLDYWGQGTQVTVSS | high polyreactivity
42 | QVQLVESGGGLVQAGGSLRLSCAASGFIFTPYTMGWYRQAPGKERELVAAITDGSSTYYADSVKGRFTISRDNAKNTVYLQMNSLKPEDTAVYYCNADGKPPYISWLYDYWGQGTQVTVSS | low polyreactivity
43 | QVQLVESGGGLVQAGGSLRLSCAASGSTFPEYAMGWYRKAPGKERELVAAISKSGGRTYYADSVKGRFTISRDNAKNTVYLQMNSLNPEDTAVYYCARDSYPHGRARFDYWGQGTQVTVSS | high polyreactivity
